Values of other authors as cited in paper PMC5580472.
Like-named read-outs stand apart in the source and are kept apart here.

What was measured:
TNF (Homo sapiens) [1] = biological target: TNF (Homo sapiens) (UniProt P01375)
TNF (Homo sapiens) [2] = biological target: TNF (Homo sapiens) (UniProt P01375); remark: listed apart in the source

Sequence of TNF (Homo sapiens) (P01375 77-233): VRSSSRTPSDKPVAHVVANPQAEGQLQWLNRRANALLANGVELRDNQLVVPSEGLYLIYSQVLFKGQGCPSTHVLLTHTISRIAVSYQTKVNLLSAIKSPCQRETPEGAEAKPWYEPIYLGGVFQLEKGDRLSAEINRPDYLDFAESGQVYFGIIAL
Sequence of CrmB (P0DSV7 23-349): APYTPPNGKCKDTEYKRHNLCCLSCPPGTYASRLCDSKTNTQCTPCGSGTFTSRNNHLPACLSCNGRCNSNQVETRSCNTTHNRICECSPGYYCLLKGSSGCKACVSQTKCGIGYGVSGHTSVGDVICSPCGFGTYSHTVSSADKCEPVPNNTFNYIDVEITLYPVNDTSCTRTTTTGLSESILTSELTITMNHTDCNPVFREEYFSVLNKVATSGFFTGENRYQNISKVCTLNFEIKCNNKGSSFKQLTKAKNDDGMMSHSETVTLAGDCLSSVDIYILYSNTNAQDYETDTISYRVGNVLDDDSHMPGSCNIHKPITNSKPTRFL
Sequence of TNF receptor 2 (P20333 23-461): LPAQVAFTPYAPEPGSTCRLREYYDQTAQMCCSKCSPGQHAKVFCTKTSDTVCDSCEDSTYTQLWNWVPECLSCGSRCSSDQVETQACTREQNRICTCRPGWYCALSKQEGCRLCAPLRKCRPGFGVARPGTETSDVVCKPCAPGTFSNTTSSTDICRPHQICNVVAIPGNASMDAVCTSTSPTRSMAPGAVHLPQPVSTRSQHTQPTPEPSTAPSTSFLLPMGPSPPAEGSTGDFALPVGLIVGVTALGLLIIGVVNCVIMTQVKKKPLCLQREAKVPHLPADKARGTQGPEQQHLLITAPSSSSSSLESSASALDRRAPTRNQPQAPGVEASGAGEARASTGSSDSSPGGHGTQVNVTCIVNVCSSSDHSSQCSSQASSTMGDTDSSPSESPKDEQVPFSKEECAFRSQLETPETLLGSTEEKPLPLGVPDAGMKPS

CrmB (from UniProt P0DSV7)
Kd (TNF (Homo sapiens) [1]): 0.28 nM

TNF receptor 2 (from UniProt P20333)
Kd (TNF (Homo sapiens) [2]): 0.3 nM
